T1: wild type (wt) HA-tagged TβR-I (UniProt P36897 34-503, limits assumed)
T1 construct: whole, on cells; also called wild type TβR-I; TGF-β type I receptor
T1 sequence (looked up): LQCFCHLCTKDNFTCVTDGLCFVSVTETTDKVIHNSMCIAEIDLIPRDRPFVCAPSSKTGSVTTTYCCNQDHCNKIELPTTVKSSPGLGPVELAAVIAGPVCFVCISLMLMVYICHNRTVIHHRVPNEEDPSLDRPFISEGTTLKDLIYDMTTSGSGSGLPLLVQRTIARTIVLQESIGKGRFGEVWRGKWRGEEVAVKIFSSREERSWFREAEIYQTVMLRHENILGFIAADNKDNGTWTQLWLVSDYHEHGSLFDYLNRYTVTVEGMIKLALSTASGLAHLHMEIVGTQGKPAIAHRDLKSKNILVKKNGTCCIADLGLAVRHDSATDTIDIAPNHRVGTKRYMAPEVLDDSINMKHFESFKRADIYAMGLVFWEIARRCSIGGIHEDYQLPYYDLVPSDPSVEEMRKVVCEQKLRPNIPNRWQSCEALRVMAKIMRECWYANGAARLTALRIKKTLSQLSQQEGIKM

T2: Smad6 (epitope-tagged, heteromerization experiment of Example 4) (mouse, UniProt O35182 1-495)
T2 construct: Whole coding region of mouse Smad6, expressed inside COS-7 cells
T2 sequence: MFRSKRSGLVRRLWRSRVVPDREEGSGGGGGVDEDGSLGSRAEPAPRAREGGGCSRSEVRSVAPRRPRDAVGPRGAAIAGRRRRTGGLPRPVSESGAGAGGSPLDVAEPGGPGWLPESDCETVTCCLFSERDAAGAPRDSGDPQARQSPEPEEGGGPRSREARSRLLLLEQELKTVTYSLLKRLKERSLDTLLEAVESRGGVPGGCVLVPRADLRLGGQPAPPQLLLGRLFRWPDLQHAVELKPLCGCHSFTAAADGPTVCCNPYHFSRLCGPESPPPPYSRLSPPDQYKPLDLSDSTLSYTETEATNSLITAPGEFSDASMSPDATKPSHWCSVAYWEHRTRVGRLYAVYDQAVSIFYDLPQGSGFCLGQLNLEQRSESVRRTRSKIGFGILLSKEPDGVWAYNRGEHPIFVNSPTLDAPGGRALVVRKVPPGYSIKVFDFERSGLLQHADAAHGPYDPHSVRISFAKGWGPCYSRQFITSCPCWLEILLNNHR

B1: FLAG-tagged Smad2 (other, not shown: small tags and cut ends)
chain: SSILPFTPPVVKRLLGWKKSAGGSGGAGGGEQNGQEEKWCQKAVKSLVKKLKKTGRLDELEKAITTQNCNTKCVTIPSTCSEIWGLSTANTVDQWDTTGLYSFSEQTRSLDGRLQVSHRKGLPHVIYCRLWRWPDLHSHHELKAIENCEYAFNLKKDEVCVNPYHYQRVETPVLPPVLVPRHTEILTELPPLDDYTHSIPENTNFPAGIEPQSNYIPETPPPGYISEDGETSDQQLNQSMDTGSPAELSPTTLSPVNHSLDLQPVTYSEPAFWCSIAYYELNQRVGETFHASQPSLTVDGFTDPSNSERFCLGLLSNVNRNATVEMTRRHIGRGVRLYYIGGEVFAECLSDSAIFVQSPNCNQRYGWHPATVCKIPPGCNLKIFNNQEFAALLAQSVNQGFEAVYQLTRMCTIRMSFVKGWGAEYRRQTVTSTPCWIELHLNGPLQWLDKVLTQMGSPSVRCSSMS
notes: Expressed inside COS-7 cells; also called F-Smad2
B2: Smad2 (epitope-tagged, heteromerization experiment of Example 4) (other, not shown: small tags and cut ends)
chain: SSILPFTPPVVKRLLGWKKSAGGSGGAGGGEQNGQEEKWCQKAVKSLVKKLKKTGRLDELEKAITTQNCNTKCVTIPSTCSEIWGLSTANTVDQWDTTGLYSFSEQTRSLDGRLQVSHRKGLPHVIYCRLWRWPDLHSHHELKAIENCEYAFNLKKDEVCVNPYHYQRVETPVLPPVLVPRHTEILTELPPLDDYTHSIPENTNFPAGIEPQSNYIPETPPPGYISEDGETSDQQLNQSMDTGSPAELSPTTLSPVNHSLDLQPVTYSEPAFWCSIAYYELNQRVGETFHASQPSLTVDGFTDPSNSERFCLGLLSNVNRNATVEMTRRHIGRGVRLYYIGGEVFAECLSDSAIFVQSPNCNQRYGWHPATVCKIPPGCNLKIFNNQEFAALLAQSVNQGFEAVYQLTRMCTIRMSFVKGWGAEYRRQTVTSTPCWIELHLNGPLQWLDKVLTQMGSPSVRCSSMS

Columns and labels:
[1] = target: T1, wild type (wt) HA-tagged TβR-I; assay: affinity cross-linking with 125I-TGF-β1, anti-FLAG immunoprecipitation from COS-7 lysates, SDS-PAGE and autoradiography
From the text: The interaction of Smad6 with the type I receptors was examined in affinity cross-linking assays. COS-7 cells were transfected with FLAG-tagged Smad6 (F-Smad6) or FLAG-tagged Smad2 (F-Smad2) in combination with the wild type (wt) or kinase-defective (KR) HA-tagged TβR-I and hexahistidine-tagged TβR-II. Cells were affinity labeled with ¹²⁵I-TGF-β1 and lysates were immunoprecipitated with anti-HA antibody or anti-FLAG M2 antibody. Immune complexes were subjected to SDS-PAGE and autoradiography. Smad6 bound to both wild type and kinase-defective TβR-I depending on the kinase activity of TβR-II. […] Similarly to Smad2, the binding of Smad6 to TβR-I required the kinase activity of TβR-II (FIG. 2a). Smad6, however, stably bound to the wild type TβR-I.

[2] = target: T2, Smad6 (epitope-tagged, heteromerization …); assay: co-immunoprecipitation and Western blot from transfected COS-7 cells
From the text: COS-7 cells were transiently transfected using DMRIE-C (Gibco/BRL, Gaithersburg, Md.). [³²P]orthophosphate- or [³⁵]methionine/cysteine-labeling and immunoprecipitation were done as described by Nakao et al. (J. Biol. Chem. 272:2896-2900, 1997). For Western blot of the immunoprecipitated proteins, tagged proteins were detected by chemiluminescence (ECL, Amersham, Arlington Heights, Ill.).
Smad2 heteromerizes with Smad4 upon phosphorylation by TβR-I (Lagna et al., 1996). It was recently shown that TGF-β also induces association of Smad2 and Smad3 (Nakao et al., EMBO. J. 16:5353-5362, 1997). The effect of Smad6 on the heteromerization of these Smads was examined (FIG. 4). COS-7 cells were transfected with the indicated combination of plasmids and subjected to immunoprecipitation followed by Western blot detection. Expression levels of Smad2 (bottom), Smad4 (middle), and Smad6 (middle) were monitored.

Binder	binding result [1]	binding result [2]
B1	no binding	–
B2	–	no binding

Reference: patent US20040053278A1 (JAPANESE FOUNDATION FOR CANCER RESEARCH, published 2004)
